Data on one molecule can be found in publication PMC8871863, “Initiator-Directed Transcription: Fission Yeast Nmtl Initiator Directs Preinitiation Complex Formation and Transcriptional Initiation” (Genes, 2022).

The target in this experiment is T1, TFIIB (fission yeast (S. pombe), UniProt O13749 1-340).
T1 construct: transcription initiation factor TFIIB of fission yeast, recombinant; also called recombinant fission yeast TFIIB
T1 sequence (looked up): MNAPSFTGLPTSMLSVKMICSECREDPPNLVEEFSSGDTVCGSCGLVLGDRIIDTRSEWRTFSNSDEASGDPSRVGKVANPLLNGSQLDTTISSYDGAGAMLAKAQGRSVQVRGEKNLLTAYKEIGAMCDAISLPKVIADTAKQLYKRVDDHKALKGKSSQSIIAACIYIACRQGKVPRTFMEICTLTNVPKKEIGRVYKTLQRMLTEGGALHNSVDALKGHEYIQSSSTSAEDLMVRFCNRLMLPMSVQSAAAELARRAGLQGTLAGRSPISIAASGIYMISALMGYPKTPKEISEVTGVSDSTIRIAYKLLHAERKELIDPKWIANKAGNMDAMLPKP
Put plainly: native gel or EMSA; purified factors incubated 5 min at 25 °C in 20 mM HEPES pH 7.9, 50 mM KCl, 5 mM MgCl2, 0.1 mM EDTA, 5% glycerol, 0.5% PEG 8000, 2 mM DTT, then 15 min at 30 °C with 32P-labelled nmt1 Inr DNA probe; 5% acrylamide gel at 4 °C; all complexes are formed on the DNA probe. To be noted: both partners purified. Background: Mobility shift assays separate free from complexed probe on a gel.

B1: TBP (natural protein, fission yeast (S. pombe), UniProt P17871 1-231, looked up)
chain: MDFALPTTASQASAFMNNSSLTFPVLPNANNEATNETADSGDAEVSKNEGVSGIVPTLQNIVATVNLDCRLDLKTIALHARNAEYNPKRFAAVIMRIREPKSTALIFASGKMVVLGGKSEDDSKLASRKYARIIQKLGFNAKFTDFKIQNIVGSCDVKFPIRLEGLAYSHGTFSSYEPELFPGLIYRMVKPKVVLLIFVSGKIVLTGAKVREEIYQAFEAIYPVLSEFRKH
notes: also called fission yeast TBP
Consider B1, for which the binding result is listed as “binds”.
